Test results from PMC4741949, “Aptamer targeting EGFRvIII mutant hampers its constitutive autophosphorylation and affects migration, invasion and proliferation of glioblastoma cells”.

Target: EGFR wild-type extracellular domain (human, UniProt P00533 25-645)
Assay: UV (254 nm) cross-linking MALDI-MS; 1:1 molar; peptide 495-500 (domain IV) linked to AGGC and GAGGC; RT-qPCR: 15 min 37 C, 100 ug/ml polyinosine, DPBS washes; flow cytometry: DPBS, 37 C, 30 min; confocal: DMEM without FBS; UV cross-linking buffer not given
Conditions: protein: recombinant

GCCUUAGUAACGUGCUUUGAUGUCGAUUCGACAGGAGGC (structured_RNA, 2'F-pyrimidines (2'F-C, 2'F-U)) [CL4]
binding result: binds
